According to patent publication US20240002497A1 (Merck Sharp & Dohme, published 2024):

Experiments:
rhNav1.7α + β1-β2-β3 = molecular target: T1, rhNav1.7α + β1-β2-β3 (rhesus monkey); experiment: binding FACS, CHO FlpIn
T1 construct: also called rhNav1.7-beta1-beta2-beta3; rhNav1.7-β1-β2-β3
Method in brief: (§1)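 Assessment used purified FLAG3-tagged ISVD incubated on cells for 30 minutes at 4° C in PBS containing 10% FBS and NaN₃, with cells washed between steps. Propidium iodide (1 μg/mL) staining removed dead cells from analysis.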

huNav1.7α + β1-β2-β3 = molecular target: T2, huNav1.7α + β1-β2-β3 (human, UniProt Q15858 1-1988; A5A6L6 19-218; O60939 30-215; Q2KI11 23-215); experiment: binding FACS, CHO FlpIn
T2 construct: also called huNav1.7-beta1-beta2-beta3; huNav1.7-β1-β2-β3
Method in brief: as §1

muNav1.7α = molecular target: T3, muNav1.7α (murine, UniProt Q62205 1-1984); experiment: binding FACS, HEK JmpIn
T3 construct: HEK JmpIn cells; also called murine Nav1.7α
Experimental: Binding of the ISVDs to cell-expressed Nav1.7α was detected via murine anti-Flag (Sigma, catalog #F1804). Briefly, cells were resuspended in FACS buffer (PBS, 10% FBS, NaN₃) and transferred to a 96-well V-bottom plate at 1×10^5 cells/well. Purified FLAG3-tagged ISVD was diluted in FACS buffer and added to the cells for 30 minutes at 4° C. […] Prior to the read-out, the samples were resuspended in 1 μg/mL propidium iodide (Sigma, catalog #P4170) to exclude dead cells. Between each step, the cells were centrifuged for 5 minutes at 200 grams and washed with 100 μL/well FACS buffer.

Row | EC50 (rhNav1.7α + β1-β2-β3) | Bmax (huNav1.7α + β1-β2-β3) | EC50 (huNav1.7α + β1-β2-β3) | EC50 (muNav1.7α) | Binder
1 | 110 nM | 100% | 9 nM | 42 nM | F010301873 (VHH, also called F0103464B09(L11V, R39Q, S68T, T79Y, R81Q, S82aN, N82bS, K83R, G88A, V89L)) VHH: EVQLVESGGGVVQPGGSLRLSCATTSRAFIRDVFTGWYRQVPGKERELVARIYNGGNTNYADFAKGRFTISRDNAKKMVYLQMNSLRPEDTALYYCLFSGTINTGREYRSGDYWGQGTLVTVSS
2 | 55 nM | 100% | 6.5 nM | 18 nM | F010301874 (VHH, also called F0103464B09(L11V, V40A, S68T, T79Y, R81Q, S82aN, N82bS, K83R, G88A, V89L)) VHH: EVQLVESGGGVVQPGGSLRLSCATTSRAFIRDVFTGWYRRAPGKERELVARIYNGGNTNYADFAKGRFTISRDNAKKMVYLQMNSLRPEDTALYYCLFSGTINTGREYRSGDYWGQGTLVTVSS
3 | 52 nM | 100% | 6.4 nM | 14 nM | F010301875 (VHH, also called F0103464B09(L11V, F62S, S68T, T79Y, R81Q, S82aN, N82bS, K83R, G88A, V89L)) VHH: EVQLVESGGGVVQPGGSLRLSCATTSRAFIRDVFTGWYRRVPGKERELVARIYNGGNTNYADSAKGRFTISRDNAKKMVYLQMNSLRPEDTALYYCLFSGTINTGREYRSGDYWGQGTLVTVSS
4 | 110 nM | 100% | 6.3 nM | 23 nM | F010301876 (VHH, also called F0103464B09(L11V, A63V, S68T, T79Y, R81Q, S82aN, N82bS, K83R, G88A, V89L)) VHH: EVQLVESGGGVVQPGGSLRLSCATTSRAFIRDVFTGWYRRVPGKERELVARIYNGGNTNYADFVKGRFTISRDNAKKMVYLQMNSLRPEDTALYYCLFSGTINTGREYRSGDYWGQGTLVTVSS
5 | 96 nM | 100% | 13 nM | 39 nM | F010301877 (VHH, also called F0103464B09(L11V, S68T, K76N, T79Y, R81Q, S82aN, N82bS, K83R, G88A, V89L)) VHH: EVQLVESGGGVVQPGGSLRLSCATTSRAFIRDVFTGWYRRVPGKERELVARIYNGGNTNYADFAKGRFTISRDNAKNMVYLQMNSLRPEDTALYYCLFSGTINTGREYRSGDYWGQGTLVTVSS
6 | 21 nM | 100% | 5.8 nM | 3.6 nM | F010301893 (VHH, also called F0103464B09(L11V, E44Q, S68T, T79Y, R81Q, S82aN, N82bS, K83R, G88A, V89L)) VHH: EVQLVESGGGVVQPGGSLRLSCATTSRAFIRDVFTGWYRRVPGKQRELVARIYNGGNTNYADFAKGRFTISRDNAKKMVYLQMNSLRPEDTALYYCLFSGTINTGREYRSGDYWGQGTLVTVSS
7 | 17 nM | 94% | 4.3 nM | 4.8 nM | F010301932 (VHH, also called F0103464B09(L11V, K83R, V89L)) VHH: EVQLVESGGGVVQPGGSLRLSCATTSRAFIRDVFTGWYRRVPGKERELVARIYNGGNTNYADFAKGRFSISRDNAKKMVTLRMSNLRPEDTGLYYCLFSGTINTGREYRSGDYWGQGTLVTVSS
8 | 21 nM | 94% | 4.4 nM | 5.3 nM | F010301933 (VHH, also called F0103464B09(L11V, S68T, K83R, V89L)) VHH: EVQLVESGGGVVQPGGSLRLSCATTSRAFIRDVFTGWYRRVPGKERELVARIYNGGNTNYADFAKGRFTISRDNAKKMVTLRMSNLRPEDTGLYYCLFSGTINTGREYRSGDYWGQGTLVTVSS
9 | 21 nM | 96% | 4.3 nM | 4.5 nM | F010301934 (VHH, also called F0103464B09(L11V, M77T, K83R, V89L)) VHH: EVQLVESGGGVVQPGGSLRLSCATTSRAFIRDVFTGWYRRVPGKERELVARIYNGGNTNYADFAKGRFSISRDNAKKTVTLRMSNLRPEDTGLYYCLFSGTINTGREYRSGDYWGQGTLVTVSS
10 | 27 nM | 94% | 3.8 nM | 5.5 nM | F010301935 (VHH, also called F0103464B09(L11V, T79Y, K83R, V89L)) VHH: EVQLVESGGGVVQPGGSLRLSCATTSRAFIRDVFTGWYRRVPGKERELVARIYNGGNTNYADFAKGRFSISRDNAKKMVYLRMSNLRPEDTGLYYCLFSGTINTGREYRSGDYWGQGTLVTVSS
